Test results: patent US20070036810A1, “Cyclic amp response element activator proteins and uses related thereto” (priority 2003, published 2007)
Read-outs that look alike come from different tables or passages of the source.

Columns and labels:
[1] = system: cAMP responsive genes in HeLa cells; settings: vs pCMV-Sport6 vector
Text: HeLa cells are transfected with CREAP1 as described herein or expression constructs containing relA, (Ruben S M et al., Science 1991 Mar. 22;251(5000):1490-3), MAP3K11 (Hartkamp, J. et al., (1999). Cancer Res. 59, 2195-2202) or ANKRD3 (Muto, A., et al., (2002) J. Biol. Chem. 277, 31871-31876.) using Targefect F1 transfection reagent (Targeting Systems, Santee, Calif.) according to the protocol supplied with the product. Briefly, HeLa cells are used for the transfection at 70-80% of confluency in T75 tissue culture flasks (Falcon). Transfection mixes are prepared as follows: to 50 ml conical tube (Falcon) with 8 ml of Opti-MEM I 20 μg of selected plasmid DNA is added and mixed by flicking the tube. Two transfections are set up with pCMV-Sport6 empty vector. Targefect F-1 stock solution is vortexed at full speed for 20 seconds and 40 μl are added to each tube, mixed again by flicking the tube and incubated at room temperature for 30 minutes to allow formation of transfection complexes. HeLa cells are washed twice with 20 ml of Opti-MEM I medium and […] of each transfection complex are added per 1 T75 flask. After 4 hrs of incubation at 37° C. 8 ml of growth media with serum is added to each flask. The media is replaced the next day. 56 hours post-transfection the media is replaced again and to one of the flasks transfected with pCMV-Sport6 plasmid TNFα (R&D Systems) is added at 50 ng/ml and the incubation is continued at 37° C. for the next 16 hours. 72 hours post-transfection cells are collected in 10 ml of TRIzol reagent (Gibco BRL) and frozen at −80° C. Total RNA is isolated according to the protocol supplied with the TRIzol reagent. Synthesis labeling of double-stranded cDNA probes, Affymetrix Gene-Chip hybridization and data analysis are done according to conventional methods (see also Eberwine, J., et al., J. Neurosci. 21, 8310-8314 and Hakak, Y., et al., (2001) Proc. Natl. Acad. Sci. U.S.A. 98, 4746-4751).
To determine if CREAP1 regulates expression of authentic CREB targets, cellular gene expression was measured using DNA microarrays after overexpression of CREAP1. Briefly, HeLa cells were transiently transfected with pCMV-Sport6, CREAP1 using Targefect F1 reagent (Targeting Systems). One half of pCMV-Sport6 transfected cells were left untreated and was used as a negative control. Total RNA isolation, labeled probe preparation and DNA microchip hybridization protocol were performed as described above.

[2] = system: GAL4 DNA binding sites (UAS-Luc, pFR-Luc reporter); experiment: GAL4 DNA binding domain fusion transactivation assay (pFR-Luc) in HEK 293 cells; format: cell-based; settings: normalized to pCMV-BD vector
Text: To determine if CREAP proteins can act as a transcription activators, various regions of all 3 CREAP homologs (amino acids 300-650 of CREAP1, amino acids 296-694 of CREAP2 and amino acids 335-635 of CREAP3) were expressed as fusion proteins with the DNA binding domain of GAL4 and tested for the ability to activate expression of a reporter gene linked to GAL4 protein binding sequences (UAS-Luc (pFR-Luc reporter). Briefly, the indicated regions of CREAP1, CREAP2 and CREAP3 were amplified by PCR and subcloned in frame into pCMV-BD vector (Stratagene) encoding GAL4 DNA binding domain. Selected plasmids and empty vector (pCMV-SPORT6) were transfected into HEK 293 cells at 75 ng/well using Fugene6 transfection reagent (Roche) as described above. pFR-Luc reporter (Stratagene) encoding firefly luciferase gene driven by minimal promoter linked to 5 concatamerized GAL4 binding sites (UAS) was co-transfected at 100 ng/well. As a positive control, the reporter was also co-transfected with a plasmid encoding GAL4-CREB fusion protein (Stratagene) alone or in the presence of pFC-PKA an expression construct encoding catalytic subunit of protein kinase A (Stratagene) to activate the CREB kinase inducible activation domain. Fold induction was compared to the reporter's activity measured in the cells transfected with pCMV-BD an expression vector carrying GAL4 DNA binding domain only.
Expression constructs encoding full length CREAP1, CREAP2 and CREAP3 as well as a Gal4 DNA binding domain alone or fused with C-terminal portions of CREAP1, CREAP2 and CREAP3 were tested for the ability to induce expression of a luciferase gene controled by a minimal promoter linked to GAL4 DNA binding sites (pFRLuciferase). The data shown are normalized to the value seen with pCMV-BD vector co-transfected with pFR-Luc reporter.

GAL4-CREB fusion protein = experiment: GAL4-CREB activation assay in HLR cell line; format: cell-based; settings: HLR cell line with integrated pFR-Luc reporter, normalized to pCMV-BD vector
Protocol: To determine if CREAP proteins can directly activate CREB1 protein, the expression constructs of CREAP1, CREAP2 and CREAP3 were transfected individually or with GAL4-CREB plasmid (Stratagene) into HLR cell line (Stratagene) carrying genomic DNA integrated copies of pFR-Luc reporter. Briefly, HLR cells were maintained per manufacturer's instructions. Selected plasmids and either empty vector (pCMV-BD) or GAL4-CREB plasmid were transfected at 75 ng/well using Fugene6 transfection reagent (Roche) as described above. As a positive control pFC-PKA an expression construct encoding catalytic subunit of protein kinase A (Stratagene) was also co-trasfected with GAL4-CREB. Fold of activation was compared to the reporter's activity measured in the cells transfected with empty vector.
The ability of full length CREAP1, CREAP2 and CREAP3 to induce the activity of GAL4-CREB fusion protein (Stratagene) was tested. The data presented are normalized to the value seen with pCMV-BD vector. […] Note the fold induction obtained with positive control is lower when compared to the data from Table 6 when all the plasmids including the reporter were transiently transfected.

B1: CREAP1: human CRE activating protein 1, 650 amino acids, SEQ ID NO 2; expressed from pCMVSPORT-CREAP1 (protein)
chain: MATSNNPRKFSEKIALHNQKQAEETAAFEEVMKDLSLTRAARLQLQKSQYLQLGPSRGQYYGGSLPNVNQIGSGTMDLPFQPSGFLGEALAAAPVSLTPFQSSGLDTSRTTRHHGLVDRVYRERGRLGSPHRRPLSVDKHGRQADSCPYGTMYLSPPADTSWRRTNSDSALHQSTMTPTQPESFSSGSQDVHQKRVLLLTVPGMEETTSEADKNLSKQAWDTKKTGSRPKSCEVPGINIFPSADQENTTALIPATHNTGGSLPDLTNIHFPSPLPTPLDPEEPTFPALSSSSSTGNLAANLTHLGIGGAGQGMSTPGSSPQHRPAGVSPLSLSTEARRQQASPTLSPLSPITQAVAMDALSLEQQLPYAFFTQAGSQQPPPQPQPPPPPPPASQQPPPPPPPQAPVRLPPGGPLLPSASLTRGPQPPPLAVTVPSSLPQSPPENPGQPSMGIDIASAPALQQYRTSAGSPANQSPTSPVSNQGFSPGSSPQHTSTLGSVFGDAYYEQQMAARQANALSHQLEQFNMMENAISSSSLYSPGSTLNYSQAAMMGLTGSHGSLPDSQQLGYASHSGIPNIILTVTGESPPSLSKELTSSLAGVGDVSFDSDSQFPLDELKIDPLTLDGLHMLNDPDMVLADPATEDTFRMDRL
modifications: human
Fold Activation ([1]; CAPL protein mRNA (38088_r_at)): 19
Fold Activation ([1]; DKFZp566K192 mRNA (32242_at)): 32
Fold Activation ([1]; Exodus-1 mRNA (40385_at)): 15
Fold Activation ([1]; IL-8 mRNA (1369_s_at)): 2.5
Fold Activation ([1]; KIAA0467 mRNA (41458_at)): 12
Fold Activation ([1]; PEPCK mRNA (33702_f_at)): 32
Fold Activation ([1]; TSHa mRNA (39352_at)): 57
Fold Activation ([1]; amphiregulin mRNA (34898_at)): 19
Fold Induction [2]: 2.468
Fold Induction (GAL4-CREB fusion protein): 6.122
